For 27 molecules, Log2 enrichment ratio results are on record in patent publication US20160376333A1 (University of Washington, published 2016).

Assay [1] has as its target T1, Epstein-Barr virus BHRF1 a.a. 1-161 with C-terminal avi-6his tag (Epstein-Barr virus).
T1 construct: also called EBV BHRF1; BHRF1-biotin
T1 chain: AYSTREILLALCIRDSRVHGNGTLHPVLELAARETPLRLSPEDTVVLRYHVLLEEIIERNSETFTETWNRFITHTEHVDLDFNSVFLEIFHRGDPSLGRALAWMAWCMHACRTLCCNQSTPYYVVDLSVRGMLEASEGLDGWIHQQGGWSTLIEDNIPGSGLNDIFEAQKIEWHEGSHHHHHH
Briefly: yeast display library, FACS sort at 100 nM BHRF1, deep sequencing.

The target of assay [2] is T1, Epstein-Barr virus BHRF1 a.a. 1-161 …. Briefly: yeast display library, FACS sort at 400 nM BHRF1, deep sequencing.

B1: Index 51 (designed binder)
chain: GWTALWLKDFTEQEARKKFREALYYGWMMAMRALEHQLQADELAMWTALWIAAMLEAIGDMFNDKLRAEKYALLLIWLNLYHKDIAEKWREEHEEKLKEALQEMFEAAEKFDKFAKFG
Regarding B1, the figures for the Log2 enrichment ratio in assay [1] and in assay [2] were -2.53 log2 and -2.43 log2, respectively.

B2: Index 56 (designed binder)
chain: GESAEKWRERLREKAGYWAEYAFWLADEAEKRAKIYSASSERRAEWTMRWIAIALAAIGDVFNEGQKADEKFDELKKQNKRSDDDLDDYKDKFKEEVEKALRKLLKAGDKIADLAEQG
For B2, the Log2 enrichment ratio in assay [1] is -3.49 log2; in assay [2], -3.81 log2.

B3: Index 46 (designed binder)
chain: GRDGERVVKWAKNQHENTVDEAKDKMDNQEDEMRKKNADDEKLRKETHKWIAFALEAIGDVFNDAMQAFELLERFKKFGQQEQKKLDEFKEKVERLAREASRKLTYLGKRFALDIESG
For B3, the Log2 enrichment ratio in assay [1] is -3.41 log2; in assay [2], -3.6 log2.

B4: Index 54 (designed binder)
chain: GDKHEEAKEEAEKKFEKLRIEARLKAEWLKKAGKYGLQLQELWAKLSDYWIAFALEIIGDLFNFLEEHKEKIEKDLKKGEALDDRADDILKDLEKKAKEVSKHAMKLGREAQQFIELG
As for B4, the figures for the Log2 enrichment ratio in assay [1] and in assay [2] were -3.22 log2 and -2.24 log2, respectively.

B5: Index 42 (designed binder)
chain: GQQEEQFIEDFKKEVLRAADDAKDDMEKRAEEFLKKDGDDNEKKRKILKWIADALEAIGDLFNAAQEAKRRAELYFKLGLLKKERKEEAEEEAEKAKEEASKKLHKAAREARIKMEKG
As to B5, the Log2 enrichment ratio was -3.63 log2 in assay [1] and -3.15 log2 in assay [2].

B6: Index 41 (designed binder)
chain: GEQEDKVKERAKRGALERAREMFEKMRKAIYLAELYINNDEGKTKLTDRWIAFALMMIGDIFNIALEARLEALKLVLKGLRSQEDAEKVKKLAEEAEREAAKRAAKLGDKMDEKEHEG
For B6, the Log2 enrichment ratio was -2.17 log2 in assay [1] and -2.39 log2 in assay [2].

B7: Index 53 (designed binder)
chain: GHVAEEEIRRFLRKAEKVLQEARRKMEKRRREAEEHDTTTWLLARGTIEWIADALMLIGDAFNFRREAYIRGELYKKFGLIREDDLKDRLKEADQRLDEFAKKMALFGLELHLRLREG
In the case of B7, the Log2 enrichment ratio in assay [1] is -0.29 log2; in assay [2] it was 0.4 log2.

B8: Index 64 (designed binder)
chain: GLSGDDAEDFARQEIEKRAREAEEKARKLIWLASKYDAKREEALKFHLRWIAFALMMIGDAFNAEEIAREMLEIARELGLTREEEAKEKLEKIRKKETEASKKMAERGRRLDNQANNG
Consider B8, for which the results for the Log2 enrichment ratio in assay [1] and in assay [2] were -3.51 log2 and -1.68 log2, respectively.

B9: Index 45 (designed binder)
chain: GYSLDDFLKLAKLLAELLKRFIRKEAERLRELKEWLLDTTLGRLILTLEWIAIELMIIGDIFNAKMLLDKFAKYAEWLGLMKEEEAKQAKKLAKLLLDEVKDEARKKADDGEKFAEEG
For the molecule B9, the Log2 enrichment ratio is -2.44 log2 in assay [1] and -3.17 log2 in assay [2].

B10: Index 39 (designed binder)
chain: GKKYLKAARLALYLLWEAYLRGYLNLLLDELEAEFFDPHDERKIRYTINWIADALMLIGDLFNARLKMEKALWELKKEGKLREEDYEKMERLFRKWMELAFKWLEHFREMAEKAKKKG
B10: the figures for the Log2 enrichment ratio in assay [1] and in assay [2] were -2.08 log2 and -2.01 log2, respectively.

B11: Index 61 (designed binder)
chain: GEHLDELLLKLLWLAIQFAERAKLTIELWKLWGKITQSYNEWAEKAARDWIAAALMIIGDMFNHKQKAEEEAKKFAKKGLKRKEELEELLKKLEEFIKRAKKLIKETAQKHEEASKMG
B11: the figures for the Log2 enrichment ratio in assay [1] and in assay [2] were -2.79 log2 and -3.54 log2, respectively.

B12: Index 63 (designed binder)
chain: GDDKEKVKDYAKKRALEDVLRAKELAEKFIDEAKKSDHSKQNERQYIIAWIAFMLMAIGDVFNAMMEAKRLAELLKRLGLRRWEEAEEVKQKAEELAEEASRLLADLGKDFAKKIEQG
In the case of B12, the results for the Log2 enrichment ratio in assay [1] and in assay [2] were -2.52 log2 and -2.41 log2, respectively.

B13: Index 52 (designed binder)
chain: GNDKEKFREDVKKKAKYALWKLKKLADEAKERALKFDPSEEMKREFTLEWIAWALEAIGDIFNAWLDGKKYADEAKKQGKARKEEAEETKKEATRIAKEAHEKASELARKILYHMLLG
For the molecule B13, the Log2 enrichment ratio is -0.83 log2 in assay [1] and -0.2 log2 in assay [2].

B14: Index 49 (designed binder)
chain: GWSKDWVLEWLREKLEEIDREALWKFILIWIEKMLGVDDDEQRRKDAAKWIAGSLEAIGDIFNAMMWAKRLLEWLEKANLVRREELEKAKQKAEELAKKAALRAAIYSKIAEEWLWKG
Regarding B14, the Log2 enrichment ratio in assay [1] was -2.7 log2; in assay [2], -1.22 log2.

B15: Index 55 (designed binder)
chain: GEEAEKLIKEAKDKFEDLREKAEELLYKMWLIRYLSSKDTKRGEIYTKKWIAIMLMMIGDAFNMALRARLYLEERRKRGEKHEEEAEEKERRARWEQEDAYKKAKKGAKRARLYDKLG
Regarding B15, the Log2 enrichment ratio in assay [1] is -2.69 log2; in assay [2], -3.29 log2.

B16: Index 50 (designed binder)
chain: GKRAEELREEAEERAKEAFKETEQKLREVEERSRQTLARDEELRKAALLWIAAALMGIGDLFNKKEKGKEALEKEEKNGKRRTERAEREKERLEKEVSREAQRFKKKGEEEEKKHKYG
For the molecule B16, the Log2 enrichment ratio in assay [1] is -3.79 log2; in assay [2], -3.47 log2.

B17: Index 62 (designed binder)
chain: GKLGEELREDAEKKGEEDMRRFERRIREIKRKLKFGYDFEQRKREATHKWIAFALEMIGDAFNFAQKLERALELFKKWNIYSEDDLRELKKRFEEAKEKLKKFADRIRDEGLKAVLLG
Take B17: the Log2 enrichment ratio is -3.21 log2 in assay [1] and -2.65 log2 in assay [2].

B18: Index 57 (designed binder)
chain: GDLKEELKERAKKIIRRALDEAKDAEDLIKKEAEKRYVTTEMATKFVAWWIAGALMIIGDIFNAAREVKERAEKALKWGVLSQDDIKELLLELENLEQEAKERAKEFGEKAEKFKKMG
Regarding B18, the figures for the Log2 enrichment ratio in assay [1] and in assay [2] were -1.97 log2 and -2.85 log2, respectively.

B19: Index 58 (designed binder)
chain: GEKAKKLEEYAREEIERALREGGDLMEEEREFGEKTELTTEWKHRAMAYWIAAALMIIGDGFNALQFIEEEGRKFIRKGEFARQKIEEHKERAKERLEKALKQAKKRGDELDRFARLG
For B19, the Log2 enrichment ratio in assay [1] was -2.36 log2; in assay [2], -2.11 log2.

B20: Index 43 (designed binder)
chain: GKKAEEVLKEARKLHEAQLRYAYLMMKDWREKKQQEEKQTQREEKWTAWWIALMLMAIGDIFNFAEWAKEELDKLREKGLVEKKKAEEAKEKAEKLAEEASRRASEFAQLFAKWDKEG
As for B20, the values for the Log2 enrichment ratio in assay [1] and in assay [2] were -2.44 log2 and -3.04 log2, respectively.

B21: Index 65 (designed binder)
chain: GNDLKDIARQIEEQAKKALDDMAKLIRELAEKAEKFYPSKDDIRRLTHYWIAAALMAIGDAFNRLQEARRRAEWLRKWGLRREEEAEKAKKEAEERHERAKELAHKMGDEMEEKLKRG
With B21, the Log2 enrichment ratio in assay [1] was -3.2 log2; in assay [2], -2.31 log2.

B22: Index 40 (designed binder)
chain: GNEAEQRREEFKEIMEKKKDEAEKKSEKIKRLALAFDLSDDDKTKATDEWIAISLEIIGDAFNFGEGLKDEAKRRKKRGLKRDEEVDKFEKIAEQAIEELRKLAEEADERGAKHLRDG
On to B22, for which the values for the Log2 enrichment ratio in assay [1] and in assay [2] were -3.7 log2 and -4.69 log2, respectively.

B23: Index 59 (designed binder)
chain: GITLEKLWKEAKEKIRKREDEALLKAEWFKKKANNVLDLNDMKAKMTAKWIALALMAIGDIFNYLLETEIKARLLVRLGLFRQEEAEKKKEEAKEEAIKSSRNIAKRGEEAAKQMEQG
Consider B23, for which the results for the Log2 enrichment ratio in assay [1] and in assay [2] were -2.86 log2 and -2.36 log2, respectively.

B24: Index 44 (designed binder)
chain: GESGEWILEKTREKIERAIRDAEKKLRLIILLIRLFHPGDDLRALFAAIWIAAELELIGDIFNEKQDAEEKFKELLKKNQFRWEELWRKWLILEWIFQKARRKSKELAERAKKAFDFG
As to B24, the Log2 enrichment ratio in assay [1] was -3.29 log2; in assay [2], -3.16 log2.

B25: Index 38 (designed binder)
chain: GEKLKKLAEELEKKFRKLFFILKDELDRAYLIALKTQVQRQELARDTKLWIAVALMIIGDLFNAEIQGKELRDKLIKKNQVEEQKAKEFWKKWEEVKQRAEELIKKGGEMVERLADYG
As for B25, the Log2 enrichment ratio in assay [1] is -1.71 log2; in assay [2], -1.46 log2.

B26: Index 48 (designed binder)
chain: GEKGKEKAQKFRDIIKDILEEAIRLAKDLAEDAKKFDLKLEKLLEATLKWIAAALMAIGDLFNFKDLAEKEVRERHDRGEISSDRRDKYEKEAREGADEAAKELSKLAKIAEKKILEG
For B26, the values for the Log2 enrichment ratio in assay [1] and in assay [2] were -2.8 log2 and -2.33 log2, respectively.

B27: Index 60 (designed binder)
chain: GRQEDEIKDEATKRALEILQKLEQKVRKAKKFAKYGLLLQRWWAWITKVWIAAALDAIGDAFNLGEELKRILEELRRRGLSSEEKAQEIKNWIEWLEKWVAIMAKLFGEELEKQFKQG
In the case of B27, the Log2 enrichment ratio is -2.91 log2 in assay [1] and -2.63 log2 in assay [2].
